Reference: article PMC3177148 (Molecular microbiology, 2011)

T1: MacB with C-terminal 6His tag, purified and reconstituted into proteoliposomes (E. coli, UniProt P75831 1-648)
T1 sequence: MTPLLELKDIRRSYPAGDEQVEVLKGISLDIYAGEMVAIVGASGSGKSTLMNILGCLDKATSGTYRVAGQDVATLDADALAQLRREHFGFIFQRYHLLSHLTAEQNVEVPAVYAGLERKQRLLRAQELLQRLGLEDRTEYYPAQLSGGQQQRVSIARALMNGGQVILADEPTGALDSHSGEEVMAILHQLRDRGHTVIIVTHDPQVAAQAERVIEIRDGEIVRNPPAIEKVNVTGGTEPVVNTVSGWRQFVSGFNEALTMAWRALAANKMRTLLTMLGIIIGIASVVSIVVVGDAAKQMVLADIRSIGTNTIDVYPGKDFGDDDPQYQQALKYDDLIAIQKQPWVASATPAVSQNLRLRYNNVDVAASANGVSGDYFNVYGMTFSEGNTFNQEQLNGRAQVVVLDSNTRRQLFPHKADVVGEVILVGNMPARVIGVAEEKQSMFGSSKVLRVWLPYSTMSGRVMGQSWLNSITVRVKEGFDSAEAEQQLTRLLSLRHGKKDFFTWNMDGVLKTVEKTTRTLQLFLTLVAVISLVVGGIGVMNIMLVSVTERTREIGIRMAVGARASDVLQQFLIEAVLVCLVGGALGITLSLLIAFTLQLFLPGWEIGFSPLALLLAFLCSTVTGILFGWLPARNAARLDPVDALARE


How the values were obtained:
[1] = target: MacB (Escherichia coli, UniProt P75831); assay: limited proteolysis protection; type: binding; conditions: 1 mM Mg-AMPPNP, loaded on ice, proteolysis at 37°C
[2] = target: the molecule itself; assay: cross-linking
[3] = target: T1, MacB with C-terminal 6His tag, purified …; assay: limited proteolysis of proteoliposomes

Molecule | limited proteolysis protection (proteinase K) in proteoliposomes, anti-MacB immu [1] | binding result [2] | binding result [3]
Nc1ncnc2c1ncn2[C@@H]1O[C@H](COP(=O)(O)OP(=O)(O)NP(=O)(O)O)[C@@H](O)[C@H]1O [AMPPNP] | MacB alone binds ATP and AMPPNP | – | –
MacA wild type with C-terminal 6His tag, purified (natural protein) MKKRKTVKKRYVIALVIVIAGLITLWRILNAPVPTYQTLIVRPGDLQQSVLATGKLDALRKVDVGAQVSGQLKTLSVAIGDKVKKDQLLGVIDPEQAENQIKEVEATLMELRAQRQQAEAELKLARVTYSRQQRLAQTKAVSQQDLDTAATEMAVKQAQIGTIDAQIKRNQASLDTAKTNLDYTRIVAPMAGEVTQITTLQGQTVIAAQQAPNILTLADMSAMLVKAQVSEADVIHLKPGQKAWFTVLGDPLTRYEGQIKDVLPTPEKVNDAIFYYARFEVPNPNGLLRLDMTAQVHIQLTDVKNVLTIPLSALGDPVGDNRYKVKLLRNGETREREVTIGARNDTDVEIVKGLEAGDEVVIGEAKPGAAQ | – | binds | binds
MacA G357A with C-terminal 6His tag, purified (natural protein) MKKRKTVKKRYVIALVIVIAGLITLWRILNAPVPTYQTLIVRPGDLQQSVLATGKLDALRKVDVGAQVSGQLKTLSVAIGDKVKKDQLLGVIDPEQAENQIKEVEATLMELRAQRQQAEAELKLARVTYSRQQRLAQTKAVSQQDLDTAATEMAVKQAQIGTIDAQIKRNQASLDTAKTNLDYTRIVAPMAGEVTQITTLQGQTVIAAQQAPNILTLADMSAMLVKAQVSEADVIHLKPGQKAWFTVLGDPLTRYEGQIKDVLPTPEKVNDAIFYYARFEVPNPNGLLRLDMTAQVHIQLTDVKNVLTIPLSALGDPVGDNRYKVKLLRNGETREREVTIGARNDTDVEIVKGLEAADEVVIGEAKPGAAQ | – | binds | –
MacA G353A with C-terminal 6His tag, purified (natural protein) MKKRKTVKKRYVIALVIVIAGLITLWRILNAPVPTYQTLIVRPGDLQQSVLATGKLDALRKVDVGAQVSGQLKTLSVAIGDKVKKDQLLGVIDPEQAENQIKEVEATLMELRAQRQQAEAELKLARVTYSRQQRLAQTKAVSQQDLDTAATEMAVKQAQIGTIDAQIKRNQASLDTAKTNLDYTRIVAPMAGEVTQITTLQGQTVIAAQQAPNILTLADMSAMLVKAQVSEADVIHLKPGQKAWFTVLGDPLTRYEGQIKDVLPTPEKVNDAIFYYARFEVPNPNGLLRLDMTAQVHIQLTDVKNVLTIPLSALGDPVGDNRYKVKLLRNGETREREVTIGARNDTDVEIVKALEAGDEVVIGEAKPGAAQ | – | binds | –
